Results on 22 sequences are retold here after the DeepSol protein solubility set.

The series in a line: soluble on expression in E. coli; label from the status in PepcDB or PDB records.
Consider “MTETYVLAESPEFYQDNVTDYTGQISSSDITNIQAAIDDVKASEQKVIFVVFLSSFDGVDPETWTQQALQANGGGNVLIYALAPEERQYGIQGGTQWTDAELDAANNAAFQALSQEDWAGSALALAESVGSSSSSSSGSSSLEHHHHHH”, for which the “soluble on expression in E. coli” value is recorded as “soluble”.
The result for “MTEVIAYLIEHFQDFDTCPPPEDLGMLLEEAGFDTMEIGNTLMMMEVLLNSSEFSAEPADSGALRVYSKEETDNLPQEVMGLMQYLIEEKAVSCEQREIIIHALMHIPGDEITVDTAKVLTLLLLWANKSELPVLVGDELMSALLLDNKPTMN” reads “not soluble”.
For “MTEYLSVSALTKYIKYKFDQDPHLQSVLIKGELSNFKKHSSGHLYFNVKDKESVISAMMFKGNASKLGFEPKEGDEVLIEARVSVYERRGNYQIYVNKMQLDGIGNLYQKLELLKKKLKKEGYFNQSNKKLIPKYPKKIAVLTASTGAAIRDIHSTINNRYPLVEQIQISTLVQGTQARQDIIEKIQYADSLDVDTIIVGRGGGSIEDLWNFNEEDVVKTIFNCQTPIISAVGHETDFTLSDFVADVRAATPTQAAVIATPDQYELLQQIKQYEYTLSRYIKQYIEHQKKQLNHISSYYKFKQPSLLYDQQIQKRDELERQLNHLLNTKVEKSKHHLKLLQQSFNFKNLNQQITQEKQSIYQLHSRLSKIMSNNITNLKTVLKNKLESLNNLSPTNTMLRGYAIVNKDNEVVTSTHKLNENDQISLTMKDGSVDATVKKVRCNDE”, the “soluble on expression in E. coli” value is recorded as “not soluble”.
For the sequence “MTFYYQRLAQQIAHKIYQQQLLPQQKLSSLRDFATQHQVSISTAKSCYEWLEAQGLIYVKPKSGYFVKPKSNVSRLPVSPEFESMPRQVSNLMLQNQIQEASIQNHLIPFGAIQLSPELVPIDGLRRSIQRALKYCKPEDFLYCEKQGHLRLRQALSEHWREDGIYVAPNDIFITNGCMPALSLLIQQLSREGDSILIPTPTFNGQLQLLAGLNRHIIEIPADHTGIDLLRLEQAMQMHQPKLCLLTANYQNPLGYCLADEDKQKIAQLAARYQCIILEDDIYAECSHHGQRPRPIKYWDEAGYVIWVSSVSKSLSSAYRVGWFCIGSQLEPMRPRFLSHNMTVNTPLQLALADFIFSRGYRRHLNQLHPRLMQQVEAYRDVILNAFAPLTIGLSQPQGGYALWLELPDNINSVTLYEVAQQQGISIVPGTVFGEDQRYGHFIRLSVGHALQNEHHAAIIFLADWVKQHC”, the “soluble on expression in E. coli” value is given as “not soluble”.
Take “MTGKLPKACVIGAGCSGFTTIKRLKDYGIPYDCFEMSDEVGGNWYYKNPNGLSACYESLHIDTSKWRLAFEDFPVPKDWPDFPHHAQLFQYFKDYVDHFGLRPTITFNTKVESAKRTADGLWAVTLSGGETQFYDVLFVCNGHHWDPRVPEYPGEFDGPAFHAHAYCDPFDPVDMRGKNVVVVGMGNSAMDIASELSQRPIAKNLWVSARRGVWVFPKYLNGKPADKTALPAWMPRKLGVALSRSVLKKTIGRMEDYGLPKPDHEPLEAHPSVSGEFLTRAGCGDIKFKPAIKALEGKRVRFTDDSVEDVDAIVFATGYKISFPFFDDPALLPDADHRLPLFKRMMKPEVPNLFYMGLAQPLPTLVNFAEQQAKLAAAYLAGQYALPPPAEMARITAKDEHRHTGHFYDSARHTIQVDFNVYCADLKKEIAKGEARARNAGGKLPVAARAEGQALAAELEHHHHHH”: the “soluble on expression in E. coli” value was “soluble”.
For the sequence “MTIAQQERPVAASPYRFEAEMTSGLERVAAHHHDLTLTSVFQPIFSLSHMRAVGYEALLRAHDALDRPVSPLDVFGEAARHGEAAQVDRLAQALHLENFARFGAEREWLFLNVHPGVLTDPFQAAALFANLKRLEIPPRRIVLEVLEQRADDIERLADAVREFREQGFLIALDDFGAGHSNIERIWQLNPDIVKLDRIMLSHAQHRAGLTAILHGLVTLLHEAGKLVLIEGIETEHEAQIALACDADFVQGHFFGRP”, the “soluble on expression in E. coli” value was “not soluble”.
With “MTIDTELTNGSSESVPFVFIGGGNMAAAIIKGCQNKGFTPKSNIVIGVQTEKSAEKWRQLGYKNVFTNTLEMLERYSTAIYVICVKPQVFEEVVSSWPVNSRPEFIISVMAGVPLKVLNAKLPFVSGNTTIVRLMPNVASSIGAGASTMCYEKNEKIMNQDSHIELAREFAECVGTVELIPERCFNPAMAIGGSSPAWTFMYIESLADGAVAQGLGRAEAKRLAAQAVLGAAQMVLNSNSGFDIETQHFGSLKDMVCSPGGTTIEGVRALEKNGFRYAVMEAVVAASTKADEMAKSLAK”, the “soluble on expression in E. coli” value is recorded as “soluble”.
With “MTIENDYAKLKELMEFPAKMTFKVAGINREGLAQDLIQVVQKYIKGDYIPKEKRSSKGTYNSVSIDIIAENFDQVETLYKELAKVEGVKMVI”, the “soluble on expression in E. coli” value is “not soluble”.
As for “MTIFNKIDYNYYKLINYPIMMVHDEWLGDLTGVNQVSFRRLRETSSTRNQLNKILRQEIHDKISGVELSDINKEGFLYQSIGKIRLLALSSALFDIQCPDYIFSRLYRETLIREIGYQNVKQLSFYWQGGQCKPEYGEERFCAELIKYGAGNLEWLFADNPLWTIVKYLLPKSGEIKPTHINDLFLNRLNKILLPYETL”, the “soluble on expression in E. coli” value was “not soluble”.
For the sequence “MTIHHHGSAERKSIDDYSDIPRGEACKQLVEQLNRNLYSLNSNMQTTFKQMVHVETRIGHEISLLSSCLQENMSKCTMPYAPHEEQLVQLDSAKRNLKQLTRLLDARQIFDAEDSQSEKLKDRAIDDSLLPTLVAIGDNLKIIKELGAKPKFDAETYHKTKDRYLAWKGTEFAVKFDTPGGLDDIFDAFTTLNSVNDFYRLYQHHFDQSLNNLNKNSGIEDEKSLKEMGTVFVTKAAEHFRTHIGSLCKYCDENEAFTRLLDAWKNYIKNGTLEKLFEQSMENYNNYDLLSDLKSVVTKAYEEFETNTAGGPEDDEESIENIERIIVDGLMESAKKPLSEKLRSMVEPPPLNFRSVAEVMSSLENFAYLLREISHQLLEIYLEDEGREFMISILKPIFTDYTMRLCRMEDNSTPKVKLEEYLERIALAGQLSTIVEEYKDQTEIKNGLELKNAKKWMNERVKDAIRASHRFVTDKMPNHGSETYKESADMAKSALPTPQDFVVTATQNLLHLLRFWEEALANENTKVALIAHVMDINKESLETPDDDAIFAAILDRIASHVVKKLLQSINDVWLTDGKTATLSKGLVKEFLCDAEYLRDALVDLRAGTHDNLDSTINKLREQLKTMS”, the “soluble on expression in E. coli” value was “not soluble”.
Take “MTIHLSSLGQVYLVCGKTDMRQGIDSLAYLVKTHFELDPFSGQVFLFCGGRKDRFKALYWDGQGFWLLYKRFENGKLTWPSTEKDVKALTPEQVDWLMKGFSITPKINLSESRDFY”: the “soluble on expression in E. coli” value is “not soluble”.
As for “MTILAIDTSNYTLGIALLREDTVIAEYITYLKKNHSVRAMPAVHSLLNDCDMAPQDLSKIVVAKGPGSYTGVRIGVTLAKTLAWSLDIPISAVSSLETLAANGRHFDGLISPIFDARRGQVYTGLYQYKNGLLEQVVPDQNVMLADWLEMLKEKDRPVLFLGHDTSLHKQMIEDVLGTKGFIGTAAQHNPRPSELAFLGKEKEAADVHGLVPDYLRLAEAEAKWIESQKLEHHHHHH”, the entry is “not soluble”; as for “MTINASNSATKKDKPAKYTMIKQYICEHIESGEWPQNAKVPSENELTQQFDVSRMTARRALQELTEQGILVRSQGAGTFVATFKSQSSLLEIRNISDEISDRGHQHKAKQLLLNSTAVTDEIAILLNLKNNEDVFYSEILHYENDDAIQLEQRFVNVSLVPDYLLQNFTQITPHEYLSSVAPLTEATHEIEAILASDEICQQLDIQSTTPCLQVKRRTWSKQGVVSVAILTSPGDKYRLGSHLKF”, “not soluble”.
On to “MTINMALHYPNYFAALVPQATAYSYYQYERNNDGTYKMIEDKNSISGKSSIRTNKIWFDSQKVKTLKNIPIWFIHSAADKVVNPKTYSLPIYKSLLDSGAKNKWFSYYDNVQGKDLKDTTYNGHWSWVYFFNNQVSSVQDVKTIKKSSKLSGFKPSNKSKGGAATAKEGKKSYNNVFDWLNDQKK”, for which the “soluble on expression in E. coli” value is listed as “not soluble”.
As for “MTIQHQFAENLSRLKKEHGLKNHQIAELLNVQTRTVAYYMSGETKPDIEKLIRLATYFHLSIDELVGYVQEDKVWNDLSLKQWLLSLNLRSEEEIAKIKILVDTVETLYPN”, the “soluble on expression in E. coli” value is reported as “not soluble”.
Take “MTIVAENLTKHLSNLSKRGPHRVLVGDLDYVGLPGKIYTPAEGNGLPAVVFAHDWMQDISRYHATLRHLASWGIVVAAPNTEKGISPNHRGFAADIETSLQVLTGVKLGAGNISVAPGRLGIVGHGMGAGAAVLAAADRPQIAAVAAIYPSQVSPSADVAARNVEAAGLVLGTEENAMFDFGNAAKLALEWKGPVAYREIDRASHQTLTENTLFKRVTGLGGTNTAARERIRGVVTGFLLHQLADQKKYSGFSEADATGKKVHSYWGEELQERASLTGDSKLTLFKS”: the “soluble on expression in E. coli” value is reported as “not soluble”.
As to “MTIYFKNGFYDDTLGGIPEGAVAVRAEEYAALLAGQAQGGQIAADSDGRPVLTPPRPSDYHEWDGKKWKISKAAAAARFAKQKTALAFRLAEKADELKNSLLAGYPQVEIDSFYRQEKEALARQADNNAPTPMLAQIAAARGVELDVLIEKVIEKSARLAVAAGAIIGKRQQLEDKLNTIETAPGLDALEKEIEEWTLNIG”, the “soluble on expression in E. coli” value is listed as “not soluble”.
“MTKIAFTGGGTVGHVSVNLSLIPTALSQGYEALYIGSKNGIEREMIESQLPEIKYYPISSGKLRRYISLENAKDVFKVLKGILDARKVLKKEKPDLLFSKGGFVSVPVVIAAKSLNIPTIIHESDLTPGLANKIALKFAKKIYTTFEETLNYLPKEKADFIGATIREDLKNGNAHNGYQLTGFNENKKVLLVMGGSLGSKKLNSIIRENLDALLQQYQVIHLTGKGLKDAQVKKSGYIQYEFVKEDLTDLLAITDTVISRAGSNAIYEFLTLRIPMLLVPLGLDQSRGDQIDNANHFADKGYAKAIDEEQLTAQILLQELNEMEQERTRIINNMKSYEQSYTKEALFDKMIKDALN”: the “soluble on expression in E. coli” value was “not soluble”.
As for “MTKIMIIGANGGIAKKLTQRLLAETDDELVLFLRRAERLAQYREQPRVTLIDGNVLDTDELATAMAPVDIVYSNVGGTDLAAQTKSILAAMARTQRQRLIFISALGAHHEVPGKFGAWNEQAIADFLPGFREAARLLSASELVYTEIRPAWLTDVAEIDYELTTGAEPFKGTEVSRASVADLVFKLMAHPENYQRVSLGVDEPGTAGDRPSWLLEHHHHHH”, the entry is “not soluble”.
Take “MTKKKLLKALAVAAIATSLVACSDSSSNDKTLTTAVSSGSSVATTTVAAPADNTNVTANASYIIGYGMGSSIATDKNIKTFNLNNDKVMAGFEDAINAKKPAIPLEDIANNMNTLRDKMQQQMNQKAVTSFLSVQDGIYNSDLTPKSDIKNPDVVVYEFFDYQCMYCSKLAPEIEKIMKDNSDVQVVFAEFPIFGQKLPASEYAAEVSTAIYKLYGADAYVKYHNGIFATGEDEGSLKNATVDNVAKQAGADMTKVNKAIQDDKIADHLKDMLKMGFGQLGIQGTPFLVIAPAKNATVANTTIIGGYTTADGIQAAINKAKSTATTTSTSNNGQTDTKQAQNDIATVTAEAQATSGSTEQLAQPR”: the “soluble on expression in E. coli” value is “not soluble”.
Turning to “MTKPIIGITANQRLNMALDNLPWSYAPTGFVQAVTQSGGLPLLLPIGDEAAAKTYVSMVDKIILIGGQNVDPKYYQEEKAAFDDDFSPERDTFELAIIKEAITLKKPILGICRGTQLMNVALGGNLNQHIDSHWQEAPSDFLSHEMIIEPDSILYPIYGHKTLINSFHRQSLKTVAKDLKVIARDPRDGTIEAVISTNDAIPFLGVQWHPELLQGVRDEDLQLFRLFVNDF”, the “soluble on expression in E. coli” value is “not soluble”.
As for “MTKQLVLFCDFDGTITENDNIIAIMKQFAPPEWEALKDDILAERISVQEGVGKMFSLLPSSLKGEIIDFLRRTTRLRAGFREFVAFTKERGIPLYIVSGGIDFFVYPLLEGLIEPERIFCNGSDFSGETIRITWPHACDGECQNGCGCCKPSLLRKLARPDGYHVVIGDSITDLAVAKQADYVMARDFLLQKCQELGLPHAPFATFFDVIDALQRMEVIV”, the “soluble on expression in E. coli” value is reported as “soluble”.
